{"source": "the nanobody polyreactivity screen of Harvey et al. (2022)", "data": [{"assay": "yeast display, Sf9 membrane polyspecificity reagent, FACS + sequencing; frameworks hold sequencing errors", "outline": "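Synthetic nanobody libraries on Saccharomyces cerevisiae BJ5465 were galactose-induced for 36–48 hours, stained 1 hour at 4 °C with 10% biotinylated, detergent-solubilized Sf9 membrane reagent and enriched on streptavidin microbeads. FACS then separated cells into low and high (top ~1%) gates by anti-HA (expression) and streptavidin (reagent binding) fluorescence. Genes were colony-PCR amplified, MiSeq 2 × 250 sequenced and CDR-length filtered. A clone's polyreactivity label is that of its gate of origin.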", "values": [{"sequence": "QVQLVESGGGLVQAGGSLRISCAASGRTFLSNAMGWYRQAPGKERELVAAISNGDNTYYADSVKGRFTISRDNAKNTVYLQMNSLKPEDTAVYYCAADQYWSWIYYPVVEYDYWGQGTQVTVSS", "polyreactivity (PSR sort gate)": "low polyreactivity"}, {"sequence": "QVQLVESGGGLVQAGGSLRISCAASGRTFWYYAKGWDRQAPGKEREFVAAISWSGGSTYYADSVKGRFTISRDNAKNTVYLQMNSLKPEDTAVSYCAADRYDSSQFYYWGQGTQVTVSS", "polyreactivity (PSR sort gate)": "low polyreactivity"}, {"sequence": "QVQLVESGGGLVQAGGSLRISCAASGRTFYSYAMGWYRQAPGKERELVAAITWRASTYYADSVKGRFTISRDNAKNTVYLQMNSLKPEDTAVYYCAVRDYRPRYYTFLYNSPYDYWGQGTQVTVSS", "polyreactivity (PSR sort gate)": "high polyreactivity"}, {"sequence": "QVQLVESGGGLVQAGGSLRISCAASGRTFYYYAMGWYRQAPGKEREFVARITSSGGSTSYADSVKGRFTISRDNAKNTVYLQMNSLKPEDTAVYYFNAVSTYTSDDYDYWGQGSQVTVSS", "polyreactivity (PSR sort gate)": "high polyreactivity"}, {"sequence": "QVQLVESGGGLVQAGGSLRISCAASGRTFYYYVMGWYRQAPGKERELVAAISRGGRTYYADSVKGRFTISRDYAKNTVYLQMNSLKPEDTAVYSCNAVPRKSRHRYDYWGQGTQVTVSS", "polyreactivity (PSR sort gate)": "high polyreactivity"}, {"sequence": "QVQLVESGGGLVQAGGSLRISCAASGRTLFNKARGRYRQAPGKERELVAAINWSGTSTYYADSVKGRFTISRDNAKNTVYLQMNSLKPEDTAVYYCAARYSTVSTRRKPYNYWGQGTQVTVSS", "polyreactivity (PSR sort gate)": "high polyreactivity"}, {"sequence": "QVQLVESGGGLVQAGGSLRISCAASGRTLGAYALGWSRQAPGKERELVAVISRRGGSTYYADSVKGRFTISRVNAKNTVYLQMNSLKPEDSAVYYCARTTLLYRTLSPGEYWGQGTQVTVSS", "polyreactivity (PSR sort gate)": "high polyreactivity"}, {"sequence": "QVQLVESGGGLVQAGGSLRISCAASGSICYYYGMGWYRQAPGKERELVAGISSRGGRTYYADSVKGRFTISRDNAKNTVYLQMNSLKPEDTAVYYGAADRYYYAYRYDPSGYWGQGTQVTVSS", "polyreactivity (PSR sort gate)": "low polyreactivity"}, {"sequence": "QVQLVESGGGLVQAGGSLRISCAASGSIFASNAMGWYRQAPGKEREFVAAITWRTDRTYYADSVKGRFTISRDNAKNTVYLQMNSLKPEDTAVYYCAADTWFYRFYYWGQGTQVTVSS", "polyreactivity (PSR sort gate)": "high polyreactivity"}, {"sequence": "QVQLVESGGGLVQAGGSLRISCAASGSIFDLNPMGGYRQAPGKERELVAAISSGGGTYYADSVKGRFTISRDNAKNTVYLQMNRLIPEDTAVYYCIRVTRWTSNYWGQCTQVTVSS", "polyreactivity (PSR sort gate)": "high polyreactivity"}, {"sequence": "QVQLVESGGGLVQAGGSLRISCAASGSIFDRNAMGWYRQAPGKERELVAGISSGGGTNYADSVKGRFTISRDNAKNTVYFQMNSLKPEDTAVYYCAVYRYLSNRVKYDYWGQGTQVTVSS", "polyreactivity (PSR sort gate)": "low polyreactivity"}, {"sequence": "QVQLVESGGGLVQAGGSLRISCAASGSIFGYYVMGWYRQAPGKERELVAAITGSVGDTYYADSVKGRFTISRDNAKNTVYLQMNSLKPVDTAVYYCNASNISPFRLLRSPMDYCGQGTQVTVSS", "polyreactivity (PSR sort gate)": "low polyreactivity"}, {"sequence": "QVQLVESGGGLVQAGGSLRISCAASGSIFLIFAMGWYRQSPGKERELVAAITQRGGSTYYADSVKGRFTISRDNAKNTVYFQMDSLKPEDTAVYYCNARRYVLRYNRFYYWGQGTQVTVSS", "polyreactivity (PSR sort gate)": "high polyreactivity"}, {"sequence": "QVQLVESGGGLVQAGGSLRISCAASGSIFWANAMGWYRQAPWKERELVAAISSSGGRTYYADSVKGRFTISRDNAKNTVYLQMNSLKPEDSAVYDCNKLRLAYYEQGDYWGQGTQVNVSS", "polyreactivity (PSR sort gate)": "high polyreactivity"}, {"sequence": "QVQLVESGGGLVQAGGSLRISCAASGSIFYGNAMGWYRQAPGKERELVAAISKRGGSTYYADSVKGRFTISRDNAKNTVYLQMNSLKPEDTAVYYCAKATAGHTEYYYWGQGTQVTVSS", "polyreactivity (PSR sort gate)": "high polyreactivity"}, {"sequence": "QVQLVESGGGLVQAGGSLRISCAASGSIFYQYAMGWYRQAPGKERELVAGITWSGGSTYYADSVKGRFTISRDNAKNTVYLQMNSLKPEDSAVYYCARRYRGGYFWGQGTQVTVSS", "polyreactivity (PSR sort gate)": "high polyreactivity"}, {"sequence": "QVQLVESGGGLVQAGGSLRISCAASGSILGLYAMGWYRQAPGKERELVAAITYRGGRTDYADSVKGRFTISRDNAKNTVYLQMNSLKPEDTAVYYCAAGYLPRPRYSTSYLYYYWGQGTQVTVSS", "polyreactivity (PSR sort gate)": "high polyreactivity"}, {"sequence": "QVQLVESGGGLVQAGGSLRISCAASGSISSDNVMGWYRQAPGKERELVAAISSGTSTHYADSVKGSFTISRDNAKNTVYLQMNSLNQEDTAVYYCAAYFYRQYLYFLYEYDYWGQGTQVTVSS", "polyreactivity (PSR sort gate)": "low polyreactivity"}, {"sequence": "QVQLVESGGGLVQAGGSLRISCAASGSIVYPYAMGWYRQAPGKERELVAAISYSGGSTYYADSVKGSFTISRDNAKNTVYLQMNSLKPEDTAVYYCNVYAGQYGMNYWGQGTQVTVSS", "polyreactivity (PSR sort gate)": "high polyreactivity"}, {"sequence": "QVQLVESGGGLVQAGGSLRISCAASGSNFTRYAMGWYRQAPGKERELVAAISNRGGRTYYADSVKGRFTISRDNAKNTVYLQMNSLKPEDTGVYYCNAATTRRIPQSDNYWGQGTQVTVSS", "polyreactivity (PSR sort gate)": "high polyreactivity"}, {"sequence": "QVQLVESGGGLVQAGGSLRISCAASGSPIWNYVMRWYRKAPGKVRDLVAAISIVGSTYYADSVKGRFTSSRDNAKNTVYFELNILKPEDTAVNYCNAGYFGGSNASKVRLSYDHWGQGTDVTVSS", "polyreactivity (PSR sort gate)": "low polyreactivity"}, {"sequence": "QVQLVESGGGLVQAGGSLRISCAASGSTFEVNAMGWYRQAPGKERELVAAISYRGTSTYYADSVKGRFTISRDNAKNTVYLQMNSLKPEDNAVYYCAAEWYDWYWEYDSWGQGTQVTVSS", "polyreactivity (PSR sort gate)": "high polyreactivity"}, {"sequence": "QVQLVESGGGLVQAGGSLRISCAASGSTFEYYAMGWYRQAPGKERELVATISIDGRTNYADSVKGRFTISRDNAKKTVYLQMNSLKPEDTAVYYCAARPYWRHRYDYWGQGTQVTVSS", "polyreactivity (PSR sort gate)": "low polyreactivity"}, {"sequence": "QVQLVESGGGLVQAGGSLRISCAASGSTFFYYSMGWYRQAPGKEWEFVAHITSSDASTHYADSVKGRFTISRDNAKNTVNLQMNSQQPEDTAVYYCAADRYCGQANYYWGQGTQVTVSS", "polyreactivity (PSR sort gate)": "low polyreactivity"}, {"sequence": "QVQLVESGGGLVQAGGSLRISCAASGSTFGWYTMGWYRQAPGKERELVAAISQGGGRTRYADSVKGRFTISRDNAKNTVYLQMNSLKPEDTAVYYCAATYYHRPYISNYGYWGQGTQVTVSS", "polyreactivity (PSR sort gate)": "high polyreactivity"}, {"sequence": "QVQLVESGGGLVQAGGSLRISCAASGSTFRLYAMGWYRQAPGKERELVAAISSNGVRTYYADSVKGRFTISRDNAKNTVYLQMNSLKPEDTAVYYCAARVYPAYPRGYDYWGQGTQVTVSS", "polyreactivity (PSR sort gate)": "high polyreactivity"}, {"sequence": "QVQLVESGGGLVQAGGSLRISCAASGSTFSGNSMGRYRPAPGKERELFAAINSVRTYYADSVKGRFTISRDNAKNTVYLQMNSLIPEDTAVFSCAARQGYSSRFPAKGYYWGQGTQVTVSS", "polyreactivity (PSR sort gate)": "high polyreactivity"}, {"sequence": "QVQLVESGGGLVQAGGSLRISCAASGSTFSQYTMGWYRQAPGKERELVAAITWSGGRTYYADSVKGRFTISRDNAKNTVYLQMNSLKPEDTAVYYCNRDISGSSGGELDYWGQGTQVTVSS", "polyreactivity (PSR sort gate)": "low polyreactivity"}, {"sequence": "QVQLVESGGGLVQAGGSLRISCAASGSTFSYYAMGWYRQAPGKERELVADISWSGGSTYYADSVKGRFTISRDNAKNTVYLQMNSQKPEDTAVFYCAARGYVRWYNRYDYWGQGTQVTVSS", "polyreactivity (PSR sort gate)": "low polyreactivity"}, {"sequence": "QVQLVESGGGLVQAGGSLRISCAASGSTFTTYAMGWYRQAPGKERELVARIRSSGGITYYADSVKGRFTISRDNAKNTVYLQMNSLKPEDTAVYYCAARGQFYNTRVGYWGQGTQVTVSS", "polyreactivity (PSR sort gate)": "high polyreactivity"}, {"sequence": "QVQLVESGGGLVQAGGSLRISCAASGSTFWYHAKGWSRQAPGKERELVATITNSGGSTYYADSVKGRFTISRDNAKNTVYLQKNSLKPEDTAVYYGATDVYSGALLKYDFWGQGTQVTVSS", "polyreactivity (PSR sort gate)": "low polyreactivity"}, {"sequence": "QVQLVESGGGLVQAGGSLRISCAASGSTLGYYAMGWYRPAPAKESELVAAISRGGGSTYYADSVKGRFTISRDNAKNTVYLQMNSLKPEVTAVYYCNKYFAYGDFDYWGQGTQVTVSS", "polyreactivity (PSR sort gate)": "high polyreactivity"}]}]}
